The values that follow are results of earlier work, collected in paper PMC8268101.

pKd: −log10 of the molar value.

The data set has as its target C1q (Homo sapiens) (UniProt P02745). The experiment in a line: SPR. On the technique in general: SPR reads the build-up and loss of mass on a sensor chip optically.
Sequence of UniProt P02745 (P02745 23-245, chain 1 of 3): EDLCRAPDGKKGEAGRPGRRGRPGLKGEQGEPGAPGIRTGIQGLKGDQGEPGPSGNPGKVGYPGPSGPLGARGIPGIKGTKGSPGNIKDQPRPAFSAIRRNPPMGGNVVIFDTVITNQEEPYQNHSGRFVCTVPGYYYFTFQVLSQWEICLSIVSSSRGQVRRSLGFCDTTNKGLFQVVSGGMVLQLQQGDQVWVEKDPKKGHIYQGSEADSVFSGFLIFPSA
Sequence of UniProt P02745 (P02746 28-253, chain 2 of 3, further chain): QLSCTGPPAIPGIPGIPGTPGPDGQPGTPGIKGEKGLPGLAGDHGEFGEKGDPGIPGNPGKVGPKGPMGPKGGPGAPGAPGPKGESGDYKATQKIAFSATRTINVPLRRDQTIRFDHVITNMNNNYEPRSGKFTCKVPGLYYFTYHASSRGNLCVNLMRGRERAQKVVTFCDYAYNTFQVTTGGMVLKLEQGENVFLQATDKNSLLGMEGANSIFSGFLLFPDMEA
Sequence of UniProt P02745 (P02747 29-245, chain 3 of 3, further chain): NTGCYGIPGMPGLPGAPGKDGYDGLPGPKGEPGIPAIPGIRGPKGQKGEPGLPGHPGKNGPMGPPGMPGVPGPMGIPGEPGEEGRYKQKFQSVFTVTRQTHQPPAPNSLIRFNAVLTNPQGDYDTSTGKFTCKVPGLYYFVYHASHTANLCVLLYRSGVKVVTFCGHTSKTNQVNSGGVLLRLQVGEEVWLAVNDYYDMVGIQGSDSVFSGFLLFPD

Regarding RAGE (from UniProt Q15109), the negative logarithm of the Kd (pKd) was 5.25.

What is called pKd is −log10 of the Kd, conventionally taken in molar units.
